Experimental data published in patent US20250026814A1.
“And” between values parts separate entries of the source, which are not always exact repeats. Identical values can stand only once.

Target: spike BA.1 antigens
Assay: ELISA (AUC)

B1: S626-161 (antibody, V domains shown)
VH: QLQLQESGPGLVKPSETLSLTCTVSGGSISSNNYYWGWIRQPPGKGLEWIGSIYYSGSTYYNPSLKSRVTMSVDTSKNQFSLKLSSVTAADTAVYHCARQGPNYYDRSGYYYVGPFDIWGQGTMVTVSS
VL: QSVLTQPPSVSAAPGQKVTISCSGSSSNIGNNSVSWYQHLPGTAPKLLIYENNERPSGIPDRFSGSKSGTSATLGITGLQTGDEADYYCETWDRSLSASFGTGTKVTVL
B1 was tested. Which fold reduced binding did it give?
Its fold reduced binding is 1.7 fold and 3.9 fold.
